One test has as its target SMYD2-F184A (human, UniProt Q9NRG4 1-433, F184A). Description: ITC; one-site model.
In test [1] the target is T1, Full-length human SMYD2 (residues 1-433), wild type (human, UniProt Q9NRG4 1-433). Description: ITC; two-site model, KD2 (second site). On the technique in general: In ITC the heat of successive injections is recorded.
In test [2] the target is T1, Full-length human SMYD2 (residues …). Description: ITC; two-site model, KD1.
Test [3] has the same target. Description: ITC; one-site model (n = 2.01).

Consider one molecule from doi:10.1101/2024.12.03.626679 (2024).

As a reminder, the Kd is a measure of binding affinity in units of concentration. Read a high Kd as weaker binding.

T1 sequence (Q9NRG4 whole entry, the tested form may be a part): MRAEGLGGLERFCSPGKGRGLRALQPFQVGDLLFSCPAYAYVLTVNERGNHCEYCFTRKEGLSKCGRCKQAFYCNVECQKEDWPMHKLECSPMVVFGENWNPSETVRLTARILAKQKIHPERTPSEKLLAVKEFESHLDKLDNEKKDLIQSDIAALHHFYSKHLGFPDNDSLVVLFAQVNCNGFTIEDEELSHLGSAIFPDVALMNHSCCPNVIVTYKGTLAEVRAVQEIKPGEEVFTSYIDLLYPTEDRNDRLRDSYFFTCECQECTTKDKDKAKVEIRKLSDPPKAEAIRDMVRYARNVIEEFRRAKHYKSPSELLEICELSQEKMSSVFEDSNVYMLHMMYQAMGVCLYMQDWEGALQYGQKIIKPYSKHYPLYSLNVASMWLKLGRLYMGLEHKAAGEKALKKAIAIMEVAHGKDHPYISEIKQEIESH
Chain of SMYD2-F184A (Q9NRG4 whole entry F184A, the tested form may be a part): as the sequence (Q9NRG4 whole entry, the tested form may be a part) above, with F184A counted along it

Take RMKLTLKGGAAVD [PARP1 peptide (13-residue synthetic peptide, human PARP1 residues 522-534)]: the Kd with SMYD2-F184A came out at 41.7 µM; in test [1], 18.2 µM; in test [2] it was 17.8 µM; in test [3], 17.7 µM.
